The target of one assay is T1, Goat anti-Human Kappa.
T1 construct: Positive control of the ELISA; also called biotinylated goat anti-human kappa light chain
Kind of assay: ELISA, positive control. The gist of the method: (§1)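 Monoclonal antibodies were first applied to human or mouse ACVR2A, alongside biotinylated goat anti-human kappa light chain (positive control) and human Fc (negative control); binding was then determined by ELISA.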
(ELISA stands for enzyme-linked immunosorbent assay.)

Another assay deals with T2, Human ACVR2A (human, UniProt P27037 20-135, limits assumed).
T2 construct: also called activin receptor, type II A
T2 sequence (P27037 20-135 limits assumed): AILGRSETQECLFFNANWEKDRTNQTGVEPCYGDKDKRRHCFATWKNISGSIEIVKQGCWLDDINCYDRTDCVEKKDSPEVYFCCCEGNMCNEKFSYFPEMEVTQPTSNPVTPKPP
Kind of assay: ELISA. The gist of the method: as §1

In the next assay the target is Mouse ACVR2A (mouse, UniProt P27038 20-135, limits assumed). The assay is described as follows: ELISA. An outline of the steps: as §1
Sequence of Mouse ACVR2A (P27038 20-135 limits assumed): as the sequence (P27037 20-135 limits assumed) above, with K20R, V73I counted along it
Note: test concentration or dose not given here.

B1: 372_C07 (antibody, V domains shown)
VH: EVQLLESGGGLVQPGGSLRLSCAASGFTFSDYSMNWVRQAPGKGLEWVSNINYNSGYTSYADSVKGRFTISRDNSKNTLYLQMNSLRAEDTAVYYCARSANWHDTHLDYWGQGTLVTVSS
VL: DIQMTQSPSSLSASVGDRVTITCRASQSILSYLNWYQQKPGKAPKLVIYAATSRHSGVPSRFSGSGSGTDFTLTISSLQPEDFATYYCQQSDNTPLTFGGGTKVEIK
Turning to B1, the optical density came to 3.46 OD with Goat anti-Human Kappa, 2.41 OD with Human ACVR2A and 2.64 OD with Mouse ACVR2A.

B2: 373_B06 (antibody, V domains shown)
VH: EVQLLESGGGLVQPGGSLRLSCAASGFTFSDYSMNWVRQAPGKGLEWVAGINYNGGYTGYADSVKGRFTISRDNSKNTLYLQMNSLRAEDTAVYYCARSANWHDTALDYWGQGTLVTVSS
VL: DIQMTQSPSSLSASVGDRVTITCRASQSILTYVNWYQQKPGKAPKLVIYAATSRHSGVPSRFSGSGSGTDFTLTISSLQPEDFATYYCQQSYESPLTFGGGTKVEIK
For B2, the optical density with Goat anti-Human Kappa was 3.24 OD; in the assay with Human ACVR2A it was 3.44 OD; with Mouse ACVR2A, 3.43 OD.

B3: 373_A10 (antibody, V domains shown)
VH: EVQLLESGGGLVQPGGSLRLSCAASGFTFSSYGMNWVRQAPGKGLEWVSGINYNSGYTSYADSVKGRFTISRDNSKNTLYLQMNSLRAEDTAVYYCARSANWHDTALDYWGQGTLVTVSS
VL: DIQMTQSPSSLSASVGDRVTITCRASQSILSYLNWYQQKPGKAPKLVIYAATSRASGVPSRFSGSGSGTDFTLTISSLQPEDFATYYCQQSYDLPLTFGGGTKVEIK
In the case of B3, the figures for the optical density with Goat anti-Human Kappa, with Human ACVR2A and with Mouse ACVR2A were 3.1 OD, 3.54 OD and 3.55 OD, respectively.

B4: 373_A08 (antibody, V domains shown)
VH: EVQLLESGGGLVQPGGSLRLSCAASGFTFDSYGMNWVRQAPGKGLEWVSNINYNGGYTGYADSVKGRFTISRDNSKNTLYLQMNSLRAEDTAVYYCARSANWHDTALDYWGQGTLVTVSS
VL: DIQMTQSPSSLSASVGDRVTITCRASQSIVSYVNWYQQKPGKAPKLLIYAATSLASGVPSRFSGSGSGTDFTLTISSLQPEDFATYYCQQSYSLPLTFGGGTKVEIK
Consider B4, for which the optical density came to 3.11 OD in the assay with Goat anti-Human Kappa, 3.3 OD with Human ACVR2A and 3.31 OD with Mouse ACVR2A.

B5: 373_C02 (antibody, V domains shown)
VH: EVQLLESGGGLVQPGGSLRLSCAASGFTFDDYSMNWVRQAPGKGLEWVSGINYNSGYKGYADSVKGRFTISRDNSKNTLYLQMNSLRAEDTAVYYCARSANWHDTALDYWGQGTLVTVSS
VL: DIQMTQSPSSLSASVGDRVTITCRASQSILSYVNWYQQKPGKAPKLLIYAATSRASGVPSRFSGSGSGTDFTLTISSLQPEDFATYYCQQSYNTPLTFGGGTKVEIK
As for B5, the figures for the optical density with Goat anti-Human Kappa, with Human ACVR2A and in the assay with Mouse ACVR2A were 3.15 OD, 3.45 OD and 3.47 OD, respectively.

B6: 373_B10 (antibody, V domains shown)
VH: EVQLLESGGGLVQPGGSLRLSCAASGFTFDSYGMNWVRQAPGKGLEWVSNINYNGGYTSYADSVKGRFTISRDNSKNTLYLQMNSLRAEDTAVYYCARSANWHDTALDYWGQGTLVTVSS
VL: DIQMTQSPSSLSASVGDRVTITCRASQSILSYLNWYQQKPGKAPKLLIYAATSRASGVPSRFSGSGSGTDFTLTISSLQPEDFATYYCQQSYDLPLTFGGGTKVEIK
Regarding B6, the optical density with Goat anti-Human Kappa was found to be 3.15 OD; with Human ACVR2A it was 3.65 OD; with Mouse ACVR2A, 3.6 OD.

B7: 372_D02 (antibody, V domains shown)
VH: EVQLLESGGGLVQPGGSLRLSCAASGFTFSSYGMHWVRQAPGKGLEWVAGINYNGGYTGYADSVKGRFTISRDNSKNTLYLQMNSLRAEDTAVYYCARSANWHDTALDYWGQGTLVTVSS
VL: DIQMTQSPSSLSASVGDRVTITCRASQSILTYLNWYQQKPGKAPKLVIYAATSRASGVPSRFSGSGSGTDFTLTISSLQPEDFATYYCQQSYDNPLTFGGGTKVEIK
Regarding B7, the figures for the optical density with Goat anti-Human Kappa, in the assay with Human ACVR2A and with Mouse ACVR2A were 3.58 OD, 2.66 OD and 2.91 OD, respectively.

B8: 372_F08 (antibody, V domains shown)
VH: EVQLLESGGGLVQPGGSLRLSCAASGFTFSDYSMNWVRQAPGKGLEWVSNINYNSGYTGYADSVKGRFTISRDNSKNTLYLQMNSLRAEDTAVYYCARSANWHDTALDYWGQGTLVTVSS
VL: DIQMTQSPSSLSASVGDRVTITCRASQSILTYVNWYQQKPGKAPKLVIYAATSRASGVPSRFSGSGSGTDFTLTISSLQPEDFATYYCQQSYDTPLTFGGGTKVEIK
For B8, the optical density was 3.44 OD with Goat anti-Human Kappa, 3.38 OD with Human ACVR2A and 3.22 OD with Mouse ACVR2A.

B9: 373_A02 (antibody, V domains shown)
VH: EVQLLESGGGLVQPGGSLRLSCAASGFTFDSYGMNWVRQAPGKGLEWVSGINYNGGYKGYADSVKGRFTISRDNSKNTLYLQMNSLRAEDTAVYYCARSANWHDTALDYWGQGTLVTVSS
VL: DIQMTQSPSSLSASVGDRVTITCRASQSILSYVNWYQQKPGKAPKLVIYATTSLASGVPSRFSGSGSGTDFTLTISSLQPEDFATYYCQQSYNTPLTFGGGTKVEIK
For B9, the optical density worked out at 2.96 OD with Goat anti-Human Kappa, 2.8 OD in the assay with Human ACVR2A and 2.97 OD with Mouse ACVR2A.

B10: 372_F09 (antibody, V domains shown)
VH: EVQLLESGGGLVQPGGSLRLSCAASGFTFDSYSMNWVRQAPGKGLEWVANINYNSGYKGYADSVKGRFTISRDNSKNTLYLQMNSLRAEDTAVYYCARSANWHDTALDYWGQGTLVTVSS
VL: DIQMTQSPSSLSASVGDRVTITCRASQSILTYLNWYQQKPGKAPKLVIYAATSLASGVPSRFSGSGSGTDFTLTISSLQPEDFATYYCQQSYSSPLTFGGGTKVEIK
Regarding B10, the optical density with Goat anti-Human Kappa is 3.47 OD; with Human ACVR2A it was 3.17 OD; with Mouse ACVR2A, 3.04 OD.

B11: 373_C08 (antibody, V domains shown)
VH: EVQLLESGGGLVQPGGSLRLSCAASGFTFSSYSMNWVRQAPGKGLEWVANINYNGGYTSYADSVKGRFTISRDNSKNTLYLQMNSLRAEDTAVYYCARSANWHDTALDYWGQGTLVTVSS
VL: DIQMTQSPSSLSASVGDRVTITCRASQSIISYLNWYQQKPGKAPKLLIYAASSLQSGVPSRFSGSGSGTDFTLTISSLQPEDFATYYCQQSYNNPLTFGGGTKVEIK
Consider B11, for which the results for the optical density with Goat anti-Human Kappa, with Human ACVR2A and in the assay with Mouse ACVR2A were 3.19 OD, 3.05 OD and 3.19 OD, respectively.

B12: 372_F03 (antibody, V domains shown)
VH: EVQLLESGGGLVQPGGSLRLSCAASGFTFSSYGMNWVRQAPGKGLEWVAGINYNGGYTSYADSVKGRFTISRDNSKNTLYLQMNSLRAEDTAVYYCARSANWHDTALDYWGQGTLVTVSS
VL: DIQMTQSPSSLSASVGDRVTITCRASQSILSYLNWYQQKPGKAPKLVIYAATSRASGVPSRFSGSGSGTDFTLTISSLQPEDFATYYCQQSYDTPLTFGGGTKVEIK
For B12, the optical density amounted to 3.6 OD with Goat anti-Human Kappa, 3.19 OD in the assay with Human ACVR2A and 3.31 OD in the assay with Mouse ACVR2A.

B13: 372_F06 (antibody, V domains shown)
VH: EVQLLESGGGLVQPGGSLRLSCAASGFTFSDYGMNWVRQAPGKGLEWVAGINYNGGYKSYADSVKGRFTISRDNSKNTLYLQMNSLRAEDTAVYYCARSANWHDTALDYWGQGTLVTVSS
VL: DIQMTQSPSSLSASVGDRVTITCRASQSILSYVNWYQQKPGKAPKLLIYAATSLASGVPSRFSGSGSGTDFTLTISSLQPEDFATYYCQQSYETPLTFGGGTKVEIK
Take B13: the optical density with Goat anti-Human Kappa was 3.48 OD; with Human ACVR2A, 2.26 OD; in the assay with Mouse ACVR2A it was 2.54 OD.

B14: 373_B12 (antibody, V domains shown)
VH: EVQLLESGGGLVQPGGSLRLSCAASGFTFDSYGMNWVRQAPGKGLEWVSSINYNSGYTSYADSVKGRFTISRDNSKNTLYLQMNSLRAEDTAVYYCARSANWHDTALDYWGQGTLVTVSS
VL: DIQMTQSPSSLSASVGDRVTITCRASQSIVSYVNWYQQKPGKAPKLLIYAATSRASGVPSRFSGSGSGTDFTLTISSLQPEDFATYYCQQSYDSPLTFGGGTKVEIK
Take B14: the results for the optical density with Goat anti-Human Kappa, with Human ACVR2A and in the assay with Mouse ACVR2A were 3.27 OD, 3.12 OD and 3.08 OD, respectively.

B15: 373_C04 (antibody, V domains shown)
VH: EVQLLESGGGLVQPGGSLRLSCAASGFTFSSYSMNWVRQAPGKGLEWVANINYNSGYTGYADSVKGRFTISRDNSKNTLYLQMNSLRAEDTAVYYCARSANWHDTALDYWGQGTLVTVSS
VL: DIQMTQSPSSLSASVGDRVTITCRASQSIISYVNWYQQKPGKAPKLVIYAVTSRASGVPSRFSGSGSGTDFTLTISSLQPEDFATYYCQQSYNSPLTFGGGTKVEIK
Consider B15, for which the optical density in the assay with Goat anti-Human Kappa worked out at 3.2 OD; in the assay with Human ACVR2A it was 3.36 OD; in the assay with Mouse ACVR2A it was 3.5 OD.

B16: 373_C06 (antibody, V domains shown)
VH: EVQLLESGGGLVQPGGSLRLSCAASGFTFSSYSMNWVRQAPGKGLEWVAGINYNGGYTGYADSVKGRFTISRDNSKNTLYLQMNSLRAEDTAVYYCARSANWHDTALDYWGQGTLVTVSS
VL: DIQMTQSPSSLSASVGDRVTITCRASQSIVSYVNWYQQKPGKAPKLVIYAATSRASGVPSRFSGSGSGTDFTLTISSLQPEDFATYYCQQSYDTPLTFGGGTKVEIK
Turning to B16, the values for the optical density with Goat anti-Human Kappa, with Human ACVR2A and with Mouse ACVR2A were 3.16 OD, 3.54 OD and 3.53 OD, respectively.

B17: 373_B04 (antibody, V domains shown)
VH: EVQLLESGGGLVQPGGSLRLSCAASGFTFSSYGMNWVRQAPGKGLEWVAGINYNSGYKGYADSVKGRFTISRDNSKNTLYLQMNSLRAEDTAVYYCARSANWHDTALDYWGQGTLVTVSS
VL: DIQMTQSPSSLSASVGDRVTITCRASQSILTYLNWYQQKPGKAPKLLIYAATSRASGVPSRFSGSGSGTDFTLTISSLQPEDFATYYCQQSYETPLTFGGGTKVEIK
Turning to B17, the optical density with Goat anti-Human Kappa came to 3.25 OD; in the assay with Human ACVR2A, 3.6 OD; with Mouse ACVR2A it was 3.62 OD.

The values above are taken from patent publication US20210380703A1 (RIGEL PHARMACEUTICALS, published 2021).
